Data as given in US20190192675A1 (Merck Sharp & Dohme, published 2019).
Non-standard residues stand in square brackets, D forms with d. No end group written: not given here. Lys(N3) = [N-]=[N+]=NCCCC[C@H](N)C(=O)O; Aib = CC(C)(N)C(=O)O

Tests used:
[1] = biological target: human Glucagon receptor (GCGR) (human, UniProt P47871 26-477); assay: cell-based or functional assay
[2] = biological target: human GLP-1 receptor (GLP1R) (human, UniProt P43220 24-463); assay: cell-based or functional assay
Sequence of human GLP-1 receptor (GLP1R) (P43220 24-463): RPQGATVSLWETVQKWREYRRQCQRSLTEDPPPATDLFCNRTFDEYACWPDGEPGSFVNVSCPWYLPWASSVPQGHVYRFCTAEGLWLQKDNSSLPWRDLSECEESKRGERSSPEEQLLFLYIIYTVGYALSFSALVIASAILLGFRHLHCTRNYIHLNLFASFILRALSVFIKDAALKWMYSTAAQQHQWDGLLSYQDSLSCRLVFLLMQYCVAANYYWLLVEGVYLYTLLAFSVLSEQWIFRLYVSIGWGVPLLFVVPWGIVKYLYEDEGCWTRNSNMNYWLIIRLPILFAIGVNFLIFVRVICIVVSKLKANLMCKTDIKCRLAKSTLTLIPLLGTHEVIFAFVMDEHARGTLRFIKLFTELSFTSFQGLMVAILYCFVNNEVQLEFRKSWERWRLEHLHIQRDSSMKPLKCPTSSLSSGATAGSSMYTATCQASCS

B1: PEP87 (peptide)
peptide: HXQGTFTSDKSKYLDERAAQDFVXWLLDT
modifications: D-Ser (s) at 2; K(γEγEC16) at 10; Nle(εN3) at 24; C-terminal amide
hGCGR_EC50 (nM), cAMP activity assay [1]: 0.019 nM

B2: PEP88 (peptide)
peptide: HXQGTFTSDKSKYLDERAAQDFVXWLLDT
modifications: D-Ser (s) at 2; Nle(εN3) at 24; C-terminal amide
hGLP1R EC50 (nM), cAMP activity assay [2]: 0.09 nM | hGCGR_EC50 (nM), cAMP activity assay [1]: 0.093 nM

B3: PEP89 (peptide)
peptide: H[Aib]QGTFTSDKSKYLD[Aib]RAAQDFVQWLMNTKQ[Lys(N3)]-NH2
hGLP1R EC50 (nM), cAMP activity assay [2]: 0.044 nM | hGCGR_EC50 (nM), cAMP activity assay [1]: 3.9 nM
